Experimental findings from publication PMC4604687, “A novel mechano-enzymatic cleavage mechanism underlies transthyretin amyloidogenesis” (EMBO Molecular Medicine, 2015) are described below.

Common to all, as to details: both partners purified
The target in test [1] is wild-type transthyretin (wild-type TTR) (UniProt P02766 21-147). Kind of test: native MS; equimolar 50 uM light wild-type and heavy S52P TTR in PBS 3 days at 4°C, then overnight with trypsin at 37°C; each tetramer species isolated and activated (tandem MS, Q-TOFII, 40 V).
The target in test [2] is T1, S52P transthyretin (S52P TTR), full-length protomer (residues 1–127) (UniProt P02766 21-147, S52P). Described as above.
Test [3] has as its target T1, S52P transthyretin (S52P TTR), …. As to the kind of experiment: native MS; TTR (S52P with or without limited trypsin proteolysis; wild type) in 200 mM ammonium acetate pH 7.4, nano-electrospray; 13+ charge state of the tetramer selected, acceleration voltage ramped 20 to 70 V (collision-induced dissociation).

B1: residue 49–127 fragment of S52P TTR (domain or fragment)
chain: not shown
notes: In the hybrid tetramer experiment the fragment comes from the 13C,15N-labelled S52P TTR; source: limited trypsin proteolysis of recombinant S52P TTR (cleavage at Lys48)
Consider B1, for which the binding result in test [1] and in test [2] was “binds” in each case.

B2: tryptic peptide CPLMVK (peptide)
peptide: CPLMVK
notes: tryptic peptide seen as adduct on the S52P TTR tetramer; source: trypsin digestion of recombinant S52P TTR
Take B2: in test [3], the binding result is reported as “binds”.
